The target in one series is T1, EWS-FLI1 (UniProt F1JVV7).
T1 sequence: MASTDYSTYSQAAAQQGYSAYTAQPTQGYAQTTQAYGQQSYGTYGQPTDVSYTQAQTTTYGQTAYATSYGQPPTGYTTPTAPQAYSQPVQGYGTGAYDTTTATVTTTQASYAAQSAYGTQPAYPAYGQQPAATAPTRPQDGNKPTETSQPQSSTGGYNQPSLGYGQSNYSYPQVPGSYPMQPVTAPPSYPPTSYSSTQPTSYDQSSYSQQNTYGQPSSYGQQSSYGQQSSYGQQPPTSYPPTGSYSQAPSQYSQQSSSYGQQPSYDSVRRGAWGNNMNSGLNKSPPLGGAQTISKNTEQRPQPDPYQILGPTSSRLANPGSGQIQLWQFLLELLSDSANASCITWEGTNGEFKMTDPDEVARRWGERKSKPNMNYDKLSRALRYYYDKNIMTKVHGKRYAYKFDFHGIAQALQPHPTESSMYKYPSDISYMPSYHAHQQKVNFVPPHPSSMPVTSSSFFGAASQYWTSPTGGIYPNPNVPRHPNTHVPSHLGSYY
Briefly: EMSA.

For a further series, the system named is RHA (RNA helicase A). Briefly: EMSA. On the technique in general: A gel shift assay detects complexes by their altered migration in electrophoresis.
Series [1] deals with T2, RNA helicase A (RHA, DHX9) (Homo sapiens, UniProt Q08211).
T2 construct: full-length, N-terminal His-tag, baculovirus / Sf9 cells, nickel IMAC and heparin purified
T2 sequence (Q08211 whole entry): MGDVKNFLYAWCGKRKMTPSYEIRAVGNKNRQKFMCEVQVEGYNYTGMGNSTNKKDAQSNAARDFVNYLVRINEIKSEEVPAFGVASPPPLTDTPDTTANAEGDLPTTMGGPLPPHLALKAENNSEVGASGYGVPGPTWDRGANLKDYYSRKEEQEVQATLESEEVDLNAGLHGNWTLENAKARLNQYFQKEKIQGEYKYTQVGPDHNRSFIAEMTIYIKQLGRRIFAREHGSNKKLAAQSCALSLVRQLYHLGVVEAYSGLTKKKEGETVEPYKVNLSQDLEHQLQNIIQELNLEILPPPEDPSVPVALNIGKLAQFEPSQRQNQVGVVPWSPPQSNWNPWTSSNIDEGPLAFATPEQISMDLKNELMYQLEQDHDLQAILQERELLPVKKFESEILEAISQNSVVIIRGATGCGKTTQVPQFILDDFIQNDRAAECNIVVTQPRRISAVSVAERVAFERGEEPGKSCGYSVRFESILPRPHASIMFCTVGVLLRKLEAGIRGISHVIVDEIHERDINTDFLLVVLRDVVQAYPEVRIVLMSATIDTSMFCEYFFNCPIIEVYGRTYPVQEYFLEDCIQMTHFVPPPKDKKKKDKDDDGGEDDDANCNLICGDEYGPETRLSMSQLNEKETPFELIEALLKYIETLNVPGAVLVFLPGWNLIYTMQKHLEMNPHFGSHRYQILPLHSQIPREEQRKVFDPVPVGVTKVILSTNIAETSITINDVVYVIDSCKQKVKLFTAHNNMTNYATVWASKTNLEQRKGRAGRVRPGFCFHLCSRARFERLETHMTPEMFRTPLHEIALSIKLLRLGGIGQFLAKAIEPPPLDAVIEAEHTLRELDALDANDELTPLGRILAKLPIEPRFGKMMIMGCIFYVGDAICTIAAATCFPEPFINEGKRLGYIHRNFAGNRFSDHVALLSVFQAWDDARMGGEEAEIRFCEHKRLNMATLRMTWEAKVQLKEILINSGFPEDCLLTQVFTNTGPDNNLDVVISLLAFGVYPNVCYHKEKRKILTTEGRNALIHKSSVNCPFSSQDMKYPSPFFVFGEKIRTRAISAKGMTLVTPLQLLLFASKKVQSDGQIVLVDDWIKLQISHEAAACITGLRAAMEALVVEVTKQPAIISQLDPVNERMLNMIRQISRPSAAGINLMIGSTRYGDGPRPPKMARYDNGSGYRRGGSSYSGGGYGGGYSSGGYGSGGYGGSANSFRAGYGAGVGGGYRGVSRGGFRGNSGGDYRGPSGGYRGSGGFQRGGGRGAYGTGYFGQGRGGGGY
The experiment in a line: dsRNA strand-separation gel assay. The class given is biochemical. Conditions: 2 mM nucleotide, 2 mM MgCl2, pH 7.5, dsRNA.

Series [2] deals with RNA helicase A (human) (UniProt Q08211).
Sequence of RNA helicase A (human) (Q08211 whole entry): as above
For series [3] the target is unchanged. The source holds these as a separate data set.
Series [4] shares this target. Briefly: SPR; RHA amine-coupled to a CM5 chip (~1800 RU); EWS-FLI1 as analyte at 24 to 0.375 nM; HBS-P with 1-mM TCEP, 2-mM MgCl2, 0.1-M imidazole, pH 7.4; flow 100 ul/min, contact 60 s, dissociation 600 s; sample compartment at 10°C; 1:1 Langmuir model; Biacore T-200. A general note: In SPR one partner is held on a chip, and binding of the other changes the refractive index at the surface.

For orientation: Kd means the equilibrium constant for the complex coming apart. A higher Kd goes with a looser complex. As a reminder, the koff is the rate constant with which the complex falls apart. For orientation: kon means the second-order rate constant of association.

In the series with EWS-FLI1, “350-nt partially double-stranded HDV RNA” returned a Kd of 30 nM and a binding signal (fold decrease in affinity) of 3. In the series on RHA (RNA helicase A), the Kd was 4.7 nM.

As to `Nc1ncnc2c1ncn2[C@@H]1O[C@H](COP(=O)(O)OP(=O)(O)OP(=O)(O)O)[C@@H](O)[C@H]1O` [ATP], the “dsRNA strand-separation gel assay” value in series [1] was “Our purified RHA utilizes ATP, CTP, Uridine triphosphate (UTP) and Guanosine triphosphate (GTP)”.

Consider `Nc1ccn([C@@H]2O[C@H](COP(=O)(O)OP(=O)(O)OP(=O)(O)O)[C@@H](O)[C@H]2O)c(=O)n1` [CTP], for which the “dsRNA strand-separation gel assay” value in series [1] is “Our purified RHA utilizes ATP, CTP, Uridine triphosphate (UTP) and Guanosine triphosphate (GTP)”.

With EWS-FLI1, in the series with RNA helicase A (human) [2], the reduction of the initial velocity of RHA helicase activity (dsRNA strand separation), 1-nM RHA with 0.5 to 10 nM EWS-FLI1 (58% reduction at 1 nM) came out at 78%. Also, the helicase activity of 1-nM RHA in the presence of 1-nM EWS-FLI1 with racemic YK-4-279 or (S)-YK-4-279 (30 uM) with RNA helicase A (human) [3] was found to be 80%. In the series with RNA helicase A (human) [4], this molecule registered a Kd of 14 nM, an off-rate constant (koff) of 0.03 s⁻¹ and a kon of 3.5e+06 M⁻¹ s⁻¹.

These data come from article PMC4333382, “RNA helicase A activity is inhibited by oncogenic transcription factor EWS-FLI1” (Nucleic Acids Research, 2015).
